The results in this text go back to patent WO2020228604A1 (dated 2020).

Assay [1] has as its target T1, human TROP-2 protein with His tag (TROP-2-His) (human, UniProt P09758 27-274).
T1 construct: Bought reagent (Sino Biological 10428-H08H); also called TROP-2His protein; human TROP-2 His antigen; not shown: His tag
T1 sequence (looked up): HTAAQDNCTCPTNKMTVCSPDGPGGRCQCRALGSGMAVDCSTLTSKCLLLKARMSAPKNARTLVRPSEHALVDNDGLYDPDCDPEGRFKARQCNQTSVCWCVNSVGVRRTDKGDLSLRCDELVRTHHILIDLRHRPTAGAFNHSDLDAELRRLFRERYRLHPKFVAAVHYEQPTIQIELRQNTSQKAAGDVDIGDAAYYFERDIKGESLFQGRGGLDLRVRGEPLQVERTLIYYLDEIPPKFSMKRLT
Description: competition ELISA; competitor: coated hRS7; test antibody diluted to 100 ug/ml and added with TROP-2-His.

Assay [2] has as its target T1, human TROP-2 protein with His tag …. Kind of assay: indirect ELISA, TROP-2-His coated at 1 ug/ml. A general note: An ELISA detects its analyte on a solid surface through an enzyme-linked reagent.

B1: humanized anti-TROP-2 antibody HU6 (antibody, V domains shown)
VH: EVQLLESGGGLVQPGGSLRLSCAASGFTVSNYWMNWVRQAPGKGLEWMGRIDPNDSETHYNQKFKDRVTISVDKSKNQFSLKLSSVTAADTAVYYCARSGFGSTYWFFDVWGQGTTVTVSS
VL: DVVMTQSPLSLPVTLGQPASISCKASQDVSTAVAWYQQKPGKAPKLFIYSASYRYTGVPSRFSGSGSGTDFTLTISSLQPEDFATYYCQQHYSTPLTFGQGTRLEIK
As for B1, in assay [1], the inhibition rate is 6.7%.

B2: humanized anti-TROP-2 antibody HU6DL (antibody, V domains shown)
VH: EVQLLESGGGLVQPGGSLRLSCAASGFTVSNYWMNWVRQAPGKGLEWMGRIDPNDSETHYNQKFKDRVTISVDKSKNQFSLKLSSVTAADTAVYYCARSGFGSTYWFFDVWGQGTTVTVSS
VL: DVVMTQSPLSLPVTLGQPASISCKASQDVSTAVAWYQQKPGKAPKLFIYSASYRYTGVPSRFSGSGSGTDFTLTISSLQPEDFATYYCQQHYSTPLTFGQGTRLEIK
In the case of B2, in assay [1], the inhibition rate is 5.9%.

B3: humanized anti-TROP-2 antibody HU1 (antibody, V domains shown)
VH: QVQLVQSGAEVKKPGSSVKVSCKASGYTFTNYWMNWVRQAPGKGLEWVGRIDPNDSETHYNQKFKDRFTITRDNSKNTLYLQMNSLRAEDTAVYYCARSGFGSTYWFFDVWGQGTTVTVSS
VL: AIRMTQSPFSLSASVGDRVTITCKASQDVSTAVAWYLQKPGQSPQLLIYSASYRYTRIPPRFSGSGYGTDFTLTINNIESEDAAYYFCQQHYSTPLTFGQGTRLEIK
Consider B3, for which the inhibition rate in assay [1] worked out at 13.5%.

B4: humanized anti-TROP-2 antibody HU10 (antibody, V domains shown)
VH: QVQLVQSGAEVKKPGSSVKVSCKASGYTFTNYWMNWVRQAPGKGLEWVGRIDPNDSETHYNQKFKDRFTITRDNSKNTLYLQMNSLRAEDTAVYYCARSGFGSTYWFFDVWGQGTTVTVSS
VL: AIRMTQSPFSLSASVGDRVTITCKASQDVSTAVAWYLQKPGQSPQLLIYSASYRYTRIPPRFSGSGYGTDFTLTINNIESEDAAYYFCQQHYSTPLTFGQGTRLEIK
In turn, B4 returned an inhibition rate in assay [1] of 10.2%.

B5: murine monoclonal antibody M1 (antibody, V domains shown)
VH: QVQLQQPGAELVRPGASVKLSCRASGYTFTNYWMNWVKQRPEQGLEWIGRIDPNDSETHYNQKFKDRAILTVDKASNTAYMQLSGLTSEDSAVHYCARSGFGSTYWFFDVWGAGTTVTVSS
VL: DIVMTQSHKFMSTSVGDRVSITCKASQDVSTAVAWYQQKPGQSPKLLIYSASYRYTGVPDRFAGSGYGTDFTFTISSVQTEDLTVYHCQQHYSTPLTFGPGTRLELK
As a reminder, the EC50 is the concentration that produces a half-maximal response. A high value points to a less potent agent. Regarding B5, the half-maximal effective concentration (EC50) in assay [2] is 0.56 nM.
